Data published in the DeepSol protein solubility set.

test: soluble on expression in E. coli; label from the status in PepcDB or PDB records

| Sequence | soluble on expression in E. coli |
| --- | --- |
| MATLEITDIALVQPSHQPLSNDQTLSLSHLDNDNNLHVSFRYLRVYSSSSSTVAGESPSAVVSASLATALVHYYPLAGSLRRSASDNRFELLCSAGQSVPLVNATVNCTLESVGYLDGPDPGFVERLVPDPTREEGMVNPCILQVTMFQCGGWVLGASIHHAICDGLGASLFFNAMAELARGATKISIEPVWDRERLLGPREKPWVGAPVRDFLSLDKDFDPYGQAIGDVKRDCFFVTDDSLDQLKAQLLEKSGLNFTTFEALGAYIWRAKVRAAKTEEKENVKFVYSINIRRLMNPPLPKGYWGNGCVPMYAQIKAGELIEQPIWKTAELIKQSKSNTSDEYVRSFIDFQELHHKDGINAGTGVTGFTDWRYLGHSTIDFGWGGPVTVLPLSNKLLGSMEPCFFLPYSTDAAAGSKKDSGFKVLVNLRESAMPEFKEAMDKFHKGEFALS | soluble |
| MRGIVTIDGPSASGKSSVARRVAAALGVPYLSSGLLYRAAAFLALRAGVDPGDEEGLLALLEGLGVRLLAQAEGNRVLADGEDLTSFLHTPEVDRVVSAVARLPGVRAWVNRRLKEVPPPFVAEGRDMGTAVFPEAAHKFYLTASPEVRAWRRARERPQAYEEVLRDLLRRDERDKAQSAPAPDALVLDTGGMTLDEVVAWVLAHIRR | soluble |
| IKPGAKMGVIGSGIASVYAKEALQELGLEASFLKIGTYPVPKKLILELLSTVDTVLIFEELEPVVEEQVRILAQEAGLEVSVLGKEGGFVSREGELDVSAFLEALRKAFDLDIEPDSGKVPLELAPRPPSLCAGCSHRATFYSMKKVFGKDAIYPSDIGCYTLGIQSGTVETTLCMGSSISIASGLYHAGEKRPICCSIGDSTFFHTGMNSLLNAVFNKANITVTILDNRITAMTGHQPNPGVGFTVTGEPTVEVSLAELCKAMGAGFVTVV | not soluble |
| MSSNSPNSSNPAATDAPKKTSVEPGSEANNWHITEADEKGFKLTDMIKKLLKPVFSKAIMFDEKEIHVLLTRVFKYYTSPPNKKTAPSASASATTSMSPPKPAANALLELQAPINICGDTHGQYNDLLRIFNACGAATKTQYLFLGDYVDRGGHSLEVIMLLFSLKLAMPRKMHLLRGNHELKAINKNYGFHAELKKRFQREEVYESVYNHFNQVFSYMPLCAIVSKRILCMHGGISPHLKSLDDIRAIPLPLETAKTHPLACDLLWADPEKDAKGFEPNKIRAISNVFGKKEVDDLCKRLDIDLIVRAHQVVEYGYAFFADRRLITVFSASRYQIELCNYAAVVVVNKMLELSFVQLKPEDFEVRRDECEENAKDQTTSNVPH | not soluble |
| MKRLLLSAAILSSMALFNVNAQELKTSADMKGSFKKNVVLEVFTAEWCGYCPGGKERIAKAIEMLDDEYKERVFQTFVHYNDGISKKWPRVGQLFIALDQTLGIPGFPTFSVCRMEKKGENLSIGAPIAIKNKIMKGFGDGTAPAEVNLKLTKGATPEDVCTATFTGKVDADLIGKPLMLTAYVLKNNMKPINPQNGAGDGYLHQHTVLMILSTDVKGDALNIAADGSFTIKKEFKLDGFEIKDTDVLAFVHHPMSNAENHSIINAGQESLDKAEPTATEQIVATPSVKAYVQNGKIVVEEEYSKMEVFNATGQLVKNESLVPGVYVVRITANGVMYFLKVLVP | not soluble |
| MRVDELRVDERIKSTLKERGIESFYPPQAEALKSGILEGKNALISIPTASGKTLIAEIAMVHRILTQGGKAVYIVPLKALAEEKFQEFQDWEKIGLRVAMATGDYDSKDEWLGKYDIIIATAEKFDSLLRHGSSWIKDVKILVADEIHLIGSRDRGATLEVILAHMLGKAQIIGLSATIGNPEELAEWLNAELIVSDWRPVKLRRGVFYQGFVTWEDGSIDRFSSWEELVYDAIRKKKGALIFVNMRRKAERVALELSKKVKSLLTKPEIRALNELADSLEENPTNEKLAKAIRGGVAFHHAGLGRDERVLVEENFRKGIIKAVVATPTLSAGINTPAFRVIIRDIWRYSDFGMERIPIIEVHQMLGRAGRPKYDEVGEGIIVSTSDDPREVMNHYIFGKPEKLFSQLSNESNLRSQVLALIATFGYSTVEEILKFISNTFYAYQRKDTYSLEEKIRNILYFLLENEFIEISLEDKIRPLSLGIRTAKLYIDPYTAKMFKDKMEEVVKDPNPIGIFHLISLTPDITPFNYSKREFERLEEEYYEFKDRLYFDDPYISGYDPYLERKFFRAFKTALVLLAWINEVPEGEIVEKYSVEPGDIYRIVETAEWLVYSLKEIAKVLGAYEIVDYLETLRVRVKYGIREELIPLMQLPLVGRRRARALYNSGFRSIEDISQARPEELLKIEGIGVKTVEAIFKFLGKNVKISEKPRKSTLDYFLKS | soluble |
| MSSTIPALPGPEPGPGPGPAGPVSLTERRKAETRMEIARAAARLFVGQGLRATRAEDIARAAGVAPRTFYRYFATKEEAVAPLYALGAERWVRAVREAPAELSPPEALERAVRHTLTPGAGVSAPSWEWARTLIRLAESSPALRKVWAEVCHSTERGLVQALAARMSGGDDNVAVRLAASPRLHFAAAVAGASVRVAAEHWASSSPQGARSPLEQALLNLEVLRGFAWEAGPAEEG | not soluble |
| GPGSMDSSAGALPATAHSSSNGAASIENVFAGLAWVRDLTDASLAAERVHNAFMQVVFSFVPEYDQDDDDDSATHRFVTAAERQKEAERDRRLREEARRELENLRNEPLSDAGDSGQRSDDEEDQRSEEANLADFETNEFMHWIEAGASDRFAAPRHEIDEKGLRDDPRVQVGADGAWQDYGVRSECNMSGATQGGARGAASAPRW | soluble |
| MGSDKIHHHHHHMASSSEGVSVLEIECKVVTPMFSRGAAEPKWENGNRVYPFELRPQSIKGVLRFWFRAIAPTVIDIYSLEGLENLSKKEKERWEKEKYKGLKYLEGLIFGSQERKSSFSLEVKVEGESQALGKYMNNRFSFTDDRLKDTKYALYGLYDKSGIYEYLQEGKNFIIILQTANDSIKGIILSLLKLVSTFSGFGAKTRKGFGEFEIVDPKLTRNDYNLVISECQEHIREFVNHHNSSSKVKIKLGRTNFNGIPDFPCFCDYKIFEITKFSGNSPLEVLREVFKVGRNFKGWYPSLKQKMRFSEGDCVKDLVEALEGLLKGRKTEKKIEIPTAVVGLPIQYQNLGRGEIRRLKVIVSSSLRGLGIDDIDGRKASPLFLSVHEGERGKWKLVVLLMRSRVTNDGELITEVKGGKTPSSGIKTIVKEEKDYKNLLEWIKKLGGKEIQGG | not soluble |
| SLNERVMMINANGVPIALYNRGHLGSGHFGAVIKASLDDGTLYAAKVPYSQIVPNADATSAELEAEISSARAELVKTIRQELDVRDKLVAKGLTLTETAEQYGLPLCQMTLTLPENKATVVRRGSRLVVVSKEVMLLPLIDGSPSNSLVQSQPPFLFQRAVAREAIIALAKLHELGFAHGDVKLNNMMIDVHGFGHMLDMGSVRPVDSCVSEEDKYYLRLWAPELAKSQHTSQQTCLKRGALDVWALGLAIFEFVCFNRLPYSLSNLPSSLWSRVEHLSRLRLSDFSAKDCNESDPAVMGIVAQFLNPNPEERPELPKFVSSYTFFRQAPGVTSHLTRIPTTELSSHR | not soluble |
| MPKIDLIIFDCDGVLVDSEYLAAQIGSQLLKKIGYEISPEELSARYAGLIFPDILKKVEQETGKPTSAHLIDQMSDLFRAQIKTELRAIDGIKEAIEAIQSHYPYCICSNARSTEIKEMLTIVDLYDFFDNKDKIFSAPEVGTKKTKPAPDVFLFAAQQLRVKPKNTIVIEDSIHGVHAATAAGMRVIGFTGGSHSYLGHSNALVEAGAETAIAKHAHLLEVLEAMAVWQDLP | not soluble |
| MGFQLRGTGTQELSIKELDLSARDAYGTTIKMLKQQLESSGVRVHAGAPYKLVLLSEENSQRTLSYTGGGNSAEYEIGTTLRYEILTHDNLHLLDDKLEVQKVFLHDGNNITGSDQESSETRKEMRRDLIQRMLIRLQLLTPEQLAQLQATAEAKAKAEADALEAARKAEAETPQQSPMELPNQLEHHHHHH | not soluble |
| MARSLLLPLQILLLSLALETAGEEAQGDKIIDGAPCARGSHPWQVALLSGNQLHCGGVLVNERWVLTAAHCKMNEYTVHLGSDTLGDRRAQRIKASKSFRHPGYSTQTHVNDLMLVKLNSQARLSSMVKKVRLPSRCEPPGTTCTVSGWGTTTSPDVTFPSDLMCVDVKLISPQDCTKVYKDLLENSMLCAGIPDSKKNACNGDSGGPLVCRGTLQGLVSWGTFPCGQPNDPGVYTQVCKFTKWINDTMKKHR | soluble |
